Earlier results in publication PMC9696485.

Molecular target: integrin α6β4 (Homo sapiens) (UniProt P23229)
Sequence of UniProt P23229 (P23229 24-1130, chain 1 of 2): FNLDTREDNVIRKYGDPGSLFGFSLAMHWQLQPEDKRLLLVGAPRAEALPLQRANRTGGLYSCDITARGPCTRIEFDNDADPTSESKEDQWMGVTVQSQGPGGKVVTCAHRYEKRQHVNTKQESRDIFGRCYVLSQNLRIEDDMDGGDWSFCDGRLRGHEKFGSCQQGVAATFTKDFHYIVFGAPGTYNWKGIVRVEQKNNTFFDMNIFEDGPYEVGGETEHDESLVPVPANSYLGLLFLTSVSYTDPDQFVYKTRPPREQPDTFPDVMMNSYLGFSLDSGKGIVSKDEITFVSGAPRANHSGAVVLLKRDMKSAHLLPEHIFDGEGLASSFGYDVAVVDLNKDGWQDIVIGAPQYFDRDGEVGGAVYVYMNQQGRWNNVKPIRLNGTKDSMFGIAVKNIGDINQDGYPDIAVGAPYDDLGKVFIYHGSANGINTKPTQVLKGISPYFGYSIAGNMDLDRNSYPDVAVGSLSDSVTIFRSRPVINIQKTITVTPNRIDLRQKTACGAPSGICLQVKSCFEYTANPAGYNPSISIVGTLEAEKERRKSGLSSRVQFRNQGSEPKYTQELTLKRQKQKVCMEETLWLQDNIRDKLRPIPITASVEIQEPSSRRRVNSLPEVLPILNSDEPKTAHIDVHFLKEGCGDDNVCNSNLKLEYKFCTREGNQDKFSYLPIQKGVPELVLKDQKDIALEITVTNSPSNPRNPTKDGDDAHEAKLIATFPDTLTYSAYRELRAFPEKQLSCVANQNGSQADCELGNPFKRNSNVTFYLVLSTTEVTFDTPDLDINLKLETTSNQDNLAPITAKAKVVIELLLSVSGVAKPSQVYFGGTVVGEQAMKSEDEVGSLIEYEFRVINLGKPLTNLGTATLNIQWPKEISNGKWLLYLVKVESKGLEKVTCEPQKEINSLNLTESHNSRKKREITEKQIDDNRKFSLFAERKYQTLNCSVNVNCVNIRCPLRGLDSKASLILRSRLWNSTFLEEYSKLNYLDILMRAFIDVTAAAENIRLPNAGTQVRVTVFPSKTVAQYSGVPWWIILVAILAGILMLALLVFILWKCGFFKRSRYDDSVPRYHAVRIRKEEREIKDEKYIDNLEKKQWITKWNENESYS
Sequence of UniProt P23229 (P16144 28-1822, chain 2 of 2, further chain): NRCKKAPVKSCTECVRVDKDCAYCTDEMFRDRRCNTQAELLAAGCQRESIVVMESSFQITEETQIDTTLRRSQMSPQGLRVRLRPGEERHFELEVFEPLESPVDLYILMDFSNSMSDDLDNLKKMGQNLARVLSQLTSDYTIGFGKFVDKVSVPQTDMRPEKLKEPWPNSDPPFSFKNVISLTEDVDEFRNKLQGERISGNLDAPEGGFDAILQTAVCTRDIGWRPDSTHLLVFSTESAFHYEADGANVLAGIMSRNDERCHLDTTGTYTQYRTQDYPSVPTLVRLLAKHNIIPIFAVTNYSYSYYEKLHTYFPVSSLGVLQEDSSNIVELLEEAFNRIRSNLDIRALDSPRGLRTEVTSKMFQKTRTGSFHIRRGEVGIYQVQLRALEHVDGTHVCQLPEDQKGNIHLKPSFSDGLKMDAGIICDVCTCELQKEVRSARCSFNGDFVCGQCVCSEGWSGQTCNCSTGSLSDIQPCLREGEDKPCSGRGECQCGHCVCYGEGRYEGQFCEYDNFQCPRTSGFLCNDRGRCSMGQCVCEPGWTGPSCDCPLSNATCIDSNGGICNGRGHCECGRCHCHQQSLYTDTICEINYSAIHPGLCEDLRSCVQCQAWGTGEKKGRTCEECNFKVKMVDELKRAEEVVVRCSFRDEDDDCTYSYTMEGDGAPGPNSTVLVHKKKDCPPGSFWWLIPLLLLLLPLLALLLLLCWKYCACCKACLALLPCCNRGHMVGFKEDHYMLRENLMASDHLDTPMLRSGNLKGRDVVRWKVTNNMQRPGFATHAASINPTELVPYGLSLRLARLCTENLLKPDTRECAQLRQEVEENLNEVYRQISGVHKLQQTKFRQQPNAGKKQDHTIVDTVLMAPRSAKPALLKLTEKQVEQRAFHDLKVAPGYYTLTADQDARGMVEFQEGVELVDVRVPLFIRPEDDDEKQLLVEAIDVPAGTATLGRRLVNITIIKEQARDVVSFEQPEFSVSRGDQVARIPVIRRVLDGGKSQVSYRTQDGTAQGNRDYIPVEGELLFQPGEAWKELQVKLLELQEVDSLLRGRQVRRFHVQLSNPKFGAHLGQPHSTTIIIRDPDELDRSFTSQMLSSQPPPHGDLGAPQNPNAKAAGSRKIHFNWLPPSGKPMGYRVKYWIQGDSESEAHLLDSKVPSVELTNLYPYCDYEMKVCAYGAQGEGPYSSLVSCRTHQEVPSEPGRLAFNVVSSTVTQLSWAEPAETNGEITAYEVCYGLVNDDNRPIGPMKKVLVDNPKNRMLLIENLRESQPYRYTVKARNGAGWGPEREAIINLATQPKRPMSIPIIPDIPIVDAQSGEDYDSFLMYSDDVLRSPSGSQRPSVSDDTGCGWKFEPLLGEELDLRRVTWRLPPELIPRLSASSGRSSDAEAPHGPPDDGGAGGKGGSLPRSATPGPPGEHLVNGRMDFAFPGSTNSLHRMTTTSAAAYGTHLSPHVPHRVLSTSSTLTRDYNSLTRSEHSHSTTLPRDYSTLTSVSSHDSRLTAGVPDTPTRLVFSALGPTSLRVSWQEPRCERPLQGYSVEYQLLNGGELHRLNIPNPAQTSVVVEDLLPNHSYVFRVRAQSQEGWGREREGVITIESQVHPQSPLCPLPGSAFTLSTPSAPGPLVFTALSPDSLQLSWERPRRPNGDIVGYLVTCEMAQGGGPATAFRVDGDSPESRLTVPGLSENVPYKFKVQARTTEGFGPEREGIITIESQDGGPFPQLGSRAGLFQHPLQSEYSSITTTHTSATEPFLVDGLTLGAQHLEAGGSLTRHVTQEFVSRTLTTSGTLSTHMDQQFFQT

## AG86 laminin peptide
  Kd: 2.5 µM
